From paper PMC11134845, “Development of a highly effective combination monoclonal antibody therapy against Herpes simplex virus” (Journal of Biomedical Science, 2024)
Values joined by “and” are separate entries in the source; they are usually repeats but may differ in a detail not shown here. Equal values may be shown once.

B1: HDIT101 IgG (antibody, V domains shown)
VH: TLKESGPALVKPTQTLTLTCTFSGFSLSTSGMSVGWIRQPPGKALEWLAHIWWNNDKYYKPALKSRLTISKDTSKNQVVLTMTNMDPVDTATYYCARIYYGYRPYAMDYWGQGTLVTVSS
VL: IVMTQTPLSLPVTPGEPASISCRSSQSIVHSNGNTYLEWYLQKPGQSPQLLIYKVSNRFSGVPDRFSGSGSGTDFTLKISRVEAEDVGVYYCFQGSHVPWSFGQGTKLEIK
notes: also called humanized IgG HDIT101; source: GMP-grade, produced by Celonic Germany GmbH (contract manufacturer)
B2: HDIT101 Fab (Fab, V domains shown)
VH: B1 VH
VL: B1 VL
notes: source: papain digestion of GMP-grade HDIT101 IgG1 (Celonic Germany GmbH), Pierce Fab Preparation Kit
B3: HDIT102 Fab (Fab, V domains shown)
VH: EVQLVQSGAEVKTPGASVRVSCKASGHTFRTFDINWVRQAAGQGLEWMGWMSPNSGNTGYARQFQGRVTMTRNISANTAYMELRGLRFDDTAVYYCARGPGSTGTTGSMDVWGQGTTVTVSS
VL: QAGLTQPPSVSVAPGKTARISCGGNNIGSKSVHWYQQKPGQAPVLVIYYDSDRPSGIPERFSGSNSGNTATLTISRVEAGDEADYYCQVWDSGSVVFGGGTKLTVL
B4: HDIT102 IgG (antibody, V domains shown)
VH: B3 VH
VL: B3 VL
notes: also called fully human IgG HDIT102; source: research grade quality, by contract manufacturer

Legend:
Details in all cases: both partners purified
[1] = target: T1, HSV-1F gB ectodomain (recombinant glycoprotein B of Herpes simplex virus 1 strain F, aa 30-729) (Herpes simplex virus 1 (strain F), UniProt P06436, biotin (EZ-Link NHS-PEG4-Biotin, gB monomer to biotin 1:3) in the BLI only); assay: BLI
[2] = target: T1, HSV-1F gB ectodomain (recombinant …); assay: cryo-EM 2D class averages; recombinant HSV-1 gB trimers incubated with a 1:1 molar mixture of HDIT101 and HDIT102 Fabs; 2D classes calculated from micrographs
[3] = target: T2, HSV-2G gB ectodomain (recombinant glycoprotein B of Herpes simplex virus 2 strain G, aa 22-724) (Herpes simplex virus 2 (strain G), biotin (EZ-Link NHS-PEG4-Biotin, gB monomer to biotin 1:3) in the BLI only); assay: BLI
T2 construct: also called HSV-2 gB; recombinant HSV-2 gB; not shown: double Strep-tag, C-terminal, cleaved

[4] = target: T1, HSV-1F gB ectodomain (recombinant …); assay: cryo-EM structure
[5] = target: T2, HSV-2G gB ectodomain (recombinant …); assay: cryo-EM structure

Binder	kon [1] [M⁻¹ s⁻¹]	stoichiometry N [2]	Kd [1] [nM]	koff [1] [s⁻¹]	Kd [3] [nM]	koff [3] [s⁻¹]	kon [3] [M⁻¹ s⁻¹]	stoichiometry N [4] [Fab per gB trimer]	stoichiometry N [5] [Fab per gB trimer]
B1	500000								
B2	435000	1 Fab per gB trimer	7.26	0.00313	18.1	0.00379	212000	3	3
B3	992000	3 Fab per gB trimer and 2 Fab per gB trimer	0.0895	8.85e-05	0.0329	2.86e-05	865000		
B4	700000								
